One molecule from PMC11853559, “α-Synuclein Iron-Responsive-Element RNA and Iron Regulatory Protein Affinity Is Specifically Reduced by Iron in Parkinson’s Disease” can be followed below.

Common to all, as to conditions: protein: commercial; hairpin (stem-loop), melted and reannealed
The target of data set [1] is T1, Iron regulatory protein 1 (IRP1) (UniProt P21399 1-889).
T1 sequence: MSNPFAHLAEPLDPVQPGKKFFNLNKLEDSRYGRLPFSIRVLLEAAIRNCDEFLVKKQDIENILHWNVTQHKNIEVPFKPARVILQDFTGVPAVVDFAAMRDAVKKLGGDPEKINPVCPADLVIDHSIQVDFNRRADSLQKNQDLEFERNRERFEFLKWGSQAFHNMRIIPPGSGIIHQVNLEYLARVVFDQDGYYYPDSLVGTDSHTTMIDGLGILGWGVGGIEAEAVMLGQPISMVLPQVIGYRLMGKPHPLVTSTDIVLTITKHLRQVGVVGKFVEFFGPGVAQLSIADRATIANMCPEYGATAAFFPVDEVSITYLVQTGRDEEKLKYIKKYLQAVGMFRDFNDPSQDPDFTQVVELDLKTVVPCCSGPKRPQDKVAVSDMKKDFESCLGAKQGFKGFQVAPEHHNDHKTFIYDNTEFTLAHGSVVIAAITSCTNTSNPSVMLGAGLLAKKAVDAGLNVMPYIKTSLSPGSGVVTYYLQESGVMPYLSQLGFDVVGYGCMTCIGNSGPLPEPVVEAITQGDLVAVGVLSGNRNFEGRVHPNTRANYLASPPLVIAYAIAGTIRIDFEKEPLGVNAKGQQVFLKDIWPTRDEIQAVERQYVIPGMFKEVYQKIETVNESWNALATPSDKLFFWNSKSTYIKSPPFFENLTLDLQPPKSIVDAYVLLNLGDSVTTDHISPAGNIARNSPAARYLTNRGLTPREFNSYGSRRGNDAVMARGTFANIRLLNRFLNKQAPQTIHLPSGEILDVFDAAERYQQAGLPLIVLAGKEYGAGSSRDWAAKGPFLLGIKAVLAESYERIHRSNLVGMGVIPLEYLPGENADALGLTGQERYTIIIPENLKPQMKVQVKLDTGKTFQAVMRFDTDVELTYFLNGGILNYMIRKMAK
As to the kind of experiment: fluorescence quenching (intrinsic); 5 °C, no Fe; 20 mM HEPES pH 7.4, 100 mM KCl, 1 mM MgCl2; 50 nM IRP1, 0-200 nM RNA; 15 min; 25 °C (5-30 °C series); Fe2+ 50 uM anaerobic where stated.

In data set [2] the target is T1, Iron regulatory protein 1 (IRP1). As to the kind of experiment: fluorescence quenching (intrinsic); 15 °C, no Fe; 20 mM HEPES pH 7.4, 100 mM KCl, 1 mM MgCl2; 50 nM IRP1, 0-200 nM RNA; 15 min; 25 °C (5-30 °C series); Fe2+ 50 uM anaerobic where stated.
The target is the same in data set [3]. The data set is described as follows: fluorescence quenching (intrinsic); 20 °C, no Fe; 20 mM HEPES pH 7.4, 100 mM KCl, 1 mM MgCl2; 50 nM IRP1, 0-200 nM RNA; 15 min; 25 °C (5-30 °C series); Fe2+ 50 uM anaerobic where stated.
The target is the same in data set [4]. As to the kind of experiment: fluorescence quenching (intrinsic); 25 °C, no Fe; 20 mM HEPES pH 7.4, 100 mM KCl, 1 mM MgCl2; 50 nM IRP1, 0-200 nM RNA; 15 min; 25 °C (5-30 °C series); Fe2+ 50 uM anaerobic where stated.
Data set [5] has the same target. The data set is described as follows: fluorescence quenching (intrinsic); 30 °C, no Fe; 20 mM HEPES pH 7.4, 100 mM KCl, 1 mM MgCl2; 50 nM IRP1, 0-200 nM RNA; 15 min; 25 °C (5-30 °C series); Fe2+ 50 uM anaerobic where stated.
For data set [6] the target is unchanged. The data set is described as follows: fluorescence quenching (intrinsic); 10 °C, no Fe; 20 mM HEPES pH 7.4, 100 mM KCl, 1 mM MgCl2; 50 nM IRP1, 0-200 nM RNA; 15 min; 25 °C (5-30 °C series); Fe2+ 50 uM anaerobic where stated.
Data set [7] shares this target. The data set is described as follows: fluorescence quenching, Scatchard; 25 °C, no Fe (abstract gives 21.0); 20 mM HEPES pH 7.4, 100 mM KCl, 1 mM MgCl2; 50 nM IRP1, 0-200 nM RNA; 15 min; 25 °C (5-30 °C series); Fe2+ 50 uM anaerobic where stated.

B1: alpha-Syn IRE RNA (SNCA 5'-UTR) (structured_RNA)
RNA: ACUGGGAGUGGCCAUUCGACGACAGUGUGGUGUAAAGGAAUUCAUUAGCC
For the molecule B1, the dissociation constant Kd (commonly the free concentration of one partner at which half of the binding sites on the other are occupied at equilibrium, for simple one-to-one binding) is 0.0135 ± 0.0006 µM in data set [1]; 0.0278 ± 0.0012 µM in data set [2]; 0.0389 ± 0.0015 µM in data set [3]; 0.0476 ± 0.0017 µM in data set [4]; 0.0638 ± 0.0032 µM in data set [5]; 0.0219 ± 0.0008 µM in data set [6]. For the same molecule, in data set [7], the Ka was 20.8 10^6 M-1.
